T1: KRAS G12R peptide on HLA-B*07:02 (human)
T1 peptide: GARGVGKSAL

B1: TCRA11V (TCR)
alpha TRAV12-1 TRAJ8 CDR3: CAVNPPDTGFQKLVF
beta TRBV28 TRBJ2-7 CDR3: CASSLSFRQGLREQYF
B2: TCRB7R (TCR)
alpha TRAV4 TRAJ41 CDR3: CLVGDFNSNSGYALNF
beta TRBV7-2 TRBJ1-2 CDR3: CASKVYGYTF

Legend:
[1] = target: KRAS G12V peptide on HLA-A*11:01 (human); experiment: mean peptide concentration for 50% NFAT activation; J^ASP90 reporter cells 1:1 with HLA-SCD K562 pulsed with titrated peptide (10 μM–1 pM), 16–20 h; full-length, on cells
[2] = target: T1, KRAS G12R peptide on HLA-B*07:02; experiment: as above

Binder | EC50 of peptide [1] [nM] | EC50 of peptide [2] [nM]
B1 | 0.15 | 
B2 |  | 3.38

From PMC8285372 (2021)
